One block for each binder: values may come before it.
Tests used:
[1] = target: T1, EGFR L858R peptide on HLA-A*11:01 (human); test: activation reporter or marker
T1 peptide: KITDFGRAK

[2] = target: T2, EGFR wild type (L858) peptide on HLA-A*11:01 (human); test: activation reporter or marker
T2 peptide: KITDFGLAK

[3] = target: T3, EGFR wild type (L858) peptide on HLA-A*11:01 (human); test: activation reporter or marker
T3 peptide: VKITDFGLAK

[4] = target: T4, EGFR L858R peptide on HLA-A*11:01 (human); test: activation reporter or marker
T4 peptide: KITDFGRAKL

[5] = target: T5, EGFR wild type (L858) peptide on HLA-A*11:01 (human); test: activation reporter or marker
T5 peptide: KITDFGLAKL

[6] = target: T1, EGFR L858R peptide on HLA-A*11:01; test: killing
[7] = target: T2, EGFR wild type (L858) peptide on …; test: killing

- binding result [1]: recognises
- binding result [2]: no recognition
- binding result [3]: no recognition
- binding result [4]: no recognition
- binding result [5]: no recognition
B1: 0013-TCR102 (TCR, V domains shown)
Valpha: VGLHLPTLSVQEGDNSIINCAYSNSASDYFIWYKQESGKGPQFIIDIRSNMDKRQGQRVTVLLNKTVKHLSLQIAATQPGDSAVYFCAETPDKLIFGTGTRLQVFP
Vbeta: DTGVSQDPRHKITKRGQNVTFRCDPISEHNRLYWYRQTLGQGPEFLTYFQNEAQLEKSRLLSDRFSAERPKGSFSTLEIQRTEQGDSAMYLCASSGGGDSPLHFGNGTRLTVT

- binding result [3]: no recognition
- binding result [4]: no recognition
- binding result [5]: no recognition
B2: 0013-TCR319 (TCR, V domains shown)
Valpha: QSVTQPDIHITVSEGASLELRCNYSYGATPYLFWYVQSPGQGLQLLLKYFSGDTLVQGIKGFEAEFKRSQSSFNLRKPSVHWSDAAEYFCAVGGGGADGLTFGKGTHLIIQP
Vbeta: DVKVTQSSRYLVKRTGEKVFLECVQDMDHENMFWYRQDPGLGLRLIYFSYDVKMKEKGDIPEGYSVSREKKERFSLILESASTNQTSMYLCATLWYRQGADGYTFGSGTRLTVV
- binding result [6]: recognises
- binding result [7]: no recognition

- binding result [3]: no recognition
- binding result [5]: no recognition
B3: 0013-TCR1 (TCR, V domains shown)
Valpha: QKEVEQNSGPLSVPEGAIASLNCTYSDRGSQSFFWYRQYSGKSPELIMSIYSNGDKEDGRFTAQLNKASQYVSLLIRDSQPSDSATYLCAVYNNNDMRFGAGTRLTVKP
Vbeta: GVSQTPSNKVTEKGKYVELRCDPISGHTALYWYRQSLGQGPEFLIYFQGTGAADDSGLPNDRFFAVRPEGSVSTLKIQRTERGDSAVYLCASSFLAGHLYTGELFFGEGSRLTVL
- binding result [6]: recognises
- binding result [7]: no recognition

— US20260273054A1 (published 2026)
